For series [1], the target named is purified calf thymus DNA polymerase δ (calf (bovine)) (UniProt P28339). The series is described as follows: cell-based or functional assay.
For series [2], the target named is his-tagged Drosophila PCNA (UniProt P17917).
Chain of his-tagged Drosophila PCNA (P17917 whole entry): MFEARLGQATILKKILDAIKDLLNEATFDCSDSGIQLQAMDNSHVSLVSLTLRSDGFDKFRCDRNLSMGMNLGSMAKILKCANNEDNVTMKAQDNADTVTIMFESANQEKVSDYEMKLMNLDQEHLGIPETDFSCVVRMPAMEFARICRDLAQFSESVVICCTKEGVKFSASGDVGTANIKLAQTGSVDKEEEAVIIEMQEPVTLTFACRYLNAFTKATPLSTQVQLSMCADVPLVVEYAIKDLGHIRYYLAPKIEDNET

Chain of purified calf thymus DNA polymerase δ (calf (bovine)) (P28339 whole entry, stated change not applied): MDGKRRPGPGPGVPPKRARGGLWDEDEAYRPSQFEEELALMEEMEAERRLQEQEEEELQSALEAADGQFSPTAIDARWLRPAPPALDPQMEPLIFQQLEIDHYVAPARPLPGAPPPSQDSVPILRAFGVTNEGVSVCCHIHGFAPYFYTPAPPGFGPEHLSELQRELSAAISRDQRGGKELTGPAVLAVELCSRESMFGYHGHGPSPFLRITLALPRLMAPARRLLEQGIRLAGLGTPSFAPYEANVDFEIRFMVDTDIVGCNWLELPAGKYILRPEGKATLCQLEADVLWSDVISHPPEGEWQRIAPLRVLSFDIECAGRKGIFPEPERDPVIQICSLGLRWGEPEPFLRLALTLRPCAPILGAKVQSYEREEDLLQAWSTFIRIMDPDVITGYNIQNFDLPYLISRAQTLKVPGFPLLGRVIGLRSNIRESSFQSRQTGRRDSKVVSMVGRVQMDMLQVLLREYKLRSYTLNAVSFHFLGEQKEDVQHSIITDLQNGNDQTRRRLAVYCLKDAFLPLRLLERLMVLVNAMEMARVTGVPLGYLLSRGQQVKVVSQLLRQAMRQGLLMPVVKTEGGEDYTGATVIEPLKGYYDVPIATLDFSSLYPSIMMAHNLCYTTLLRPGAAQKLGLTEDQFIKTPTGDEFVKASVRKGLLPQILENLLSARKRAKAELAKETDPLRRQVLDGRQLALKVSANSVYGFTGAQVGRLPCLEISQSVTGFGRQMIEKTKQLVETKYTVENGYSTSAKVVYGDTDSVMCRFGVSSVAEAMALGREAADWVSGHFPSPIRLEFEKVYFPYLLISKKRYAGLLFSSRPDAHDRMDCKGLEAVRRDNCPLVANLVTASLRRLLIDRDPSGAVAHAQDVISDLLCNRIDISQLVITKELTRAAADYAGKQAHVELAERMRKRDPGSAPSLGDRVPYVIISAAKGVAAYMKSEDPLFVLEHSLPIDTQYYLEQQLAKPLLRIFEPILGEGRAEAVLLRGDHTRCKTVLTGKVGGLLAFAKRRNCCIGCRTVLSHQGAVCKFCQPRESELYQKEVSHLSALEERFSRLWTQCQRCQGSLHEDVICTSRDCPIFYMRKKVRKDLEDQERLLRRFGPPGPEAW

For “NH2-terminally his-tagged E^85>K mutant human PCNA (from UniProt P12004 1-261)”, in series [1], the solution assay of pol δ: extended DNA synthesis beyond model abasic template lesions, compared with wild-type PCNA (phosphorimager) worked out at 40%. In the case of purified calf thymus DNA polymerase δ, in series [2], the “in situ DNA polymerase assay on Ni2+-IDA-paper ([alpha-32P]dGTP incorporation, PhosphorImager)” value was “almost no reactivity was observed corresponding to the spot of Drosophila PCNA”.
